# Measurements: patent US20060165677A1, “DELETION FORMS OF IgE-DEPENDENT HISTAMINE RELEASING FACTOR HAVING HISTAMINE RELEASING ACTIVITY, HRF-BINDING PEPTIDES AND THE USES THEREOF” (EWHA UNIVERSITY-INDUSTRY COLLABORATION FOUNDATION, priority 2005, published 2006)
# Entries after “also recorded” stand apart in the source; their conditions may differ.
# T1: Del-N35HRF (Rattus norvegicus, UniProt P63029)
# T1 construct: 6xHis (pRSET-A leader) (N); made in house; host or cells: E. coli BL21(DE3) or BL21(DE3)pLysS
# T1 sequence (P63029 35-172): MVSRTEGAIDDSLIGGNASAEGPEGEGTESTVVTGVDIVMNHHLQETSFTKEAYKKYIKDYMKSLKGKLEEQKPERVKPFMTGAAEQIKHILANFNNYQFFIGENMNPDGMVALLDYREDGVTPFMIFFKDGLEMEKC
# B1: Del-N11HRF: deletion form of rat HRF, amino acid 11-172 fragment; 10 N-terminal residues deleted (protein, listed as Rattus norvegicus)
# chain: DELFSDIYKIREIADGLCLEVEGKMVSRTEGAIDDSLIGGNASAEGPEGEGTESTVVTGVDIVMNHHLQETSFTKEAYKKYIKDYMKSLKGKLEEQKPERVKPFMTGAAEQIKHILANFNNYQFFIGENMNPDGMVALLDYREDGVTPFMIFFKDGLEMEKC
# B2: Del-N35HRF: deletion form of rat HRF, amino acid 35-172 fragment; 34 N-terminal residues deleted (protein, listed as Rattus norvegicus)
# chain: MVSRTEGAIDDSLIGGNASAEGPEGEGTESTVVTGVDIVMNHHLQETSFTKEAYKKYIKDYMKSLKGKLEEQKPERVKPFMTGAAEQIKHILANFNNYQFFIGENMNPDGMVALLDYREDGVTPFMIFFKDGLEMEKC
# B3: RrHRF: recombinant total-length rat HRF, amino acids 1-172 (Accession number U20525) (protein, listed as Rattus norvegicus)
# chain: MIIYRDLISHDELFSDIYKIREIADGLCLEVEGKMVSRTEGAIDDSLIGGNASAEGPEGEGTESTVVTGVDIVMNHHLQETSFTKEAYKKYIKDYMKSLKGKLEEQKPERVKPFMTGAAEQIKHILANFNNYQFFIGENMNPDGMVALLDYREDGVTPFMIFFKDGLEMEKC
# B4: Del-C112HRF: deletion form of rat HRF, amino acid 1-112 fragment (protein, listed as Rattus norvegicus)
# chain: MIIYRDLISHDELFSDIYKIREIADGLCLEVEGKMVSRTEGAIDDSLIGGNASAEGPEGEGTESTVVTGVDIVMNHHLQETSFTKEAYKKYIKDYMKSLKGKLEEQKPERVK
# B5: Del-N39C110HRF: deletion form of rat HRF, amino acid 39-110 fragment (protein, listed as Rattus norvegicus)
# chain: TEGAIDDSLIGGNASAEGPEGEGTESTVVTGVDIVMNHHLQETSFTKEAYKKYIKDYMKSLKGKLEEQKPER
# How the values were obtained:
# [1] = system: phage φ-HBP-2 expressing HRF-binding peptide; assay: Phage display peptide clone-binding capacity of immobilized HRF forms (ELISA); conditions: HRF form immobilized on plate, ELISA at 405 nm
# Procedure: Each deletion form of HRF was immobilized on a plastic well, to which phage expressing HRF-binding peptide was added in order to investigate binding capacity of each HRF.
# Particularly, each deletion form of HRF dissolved in coating buffer (0.1 M NaHCO3, pH 8.6) at the concentration of 20 μg/Ml was placed on polystyrene microtiter plate by 50 μl, followed by coating at 4° C. for overnight and non-specific binding was blocked with BSA. The plate was washed with 0.1% tween/TBS (TBST) 6 times, to which 30 μl of phage solution diluted in 30 μl of 6% BSA/PBS was added. The solution stood at room temperature for 2 hours. After washing with PBST five times, 100 μl of […] anti-M13 antibody (Pharmacia), diluted in 3% BSA/PBS at the ratio of 1:5000, was added to the solution, followed by standing at room temperature for one hour. After washing 6 times with PBST and once more with PBS, 100 μl of peroxidase substrate solution was added and color development was measured at 405 nm by using ELISA reader (Bio-Rad).
# [2] = system: deletion forms of HRF; assay: Inhibition by HRF-binding peptide of HRF-induced histamine secretion in RBL-2H3 cells; assay type: cell-based; conditions: RBL-2H3 cells sensitized with rat IgE
# Procedure: RBL-2H3 cells (ATCC) were cultured in 24-well plate at the concentration of 5×10^4 cells/well, followed by sensitization with rat IgE antibody (0.2 μg/Ml, Serotec) for 60 minutes. The cells were treated with […] of recombinant HRF protein in 5% FBS/MEM medium (positive control). The cells were treated with heptamer peptide (Korean Registered Patent No. 457350B1) with different concentrations (0.0156-15.6 mM). 15 minutes later, rat anti-IgE antibody was added thereto. 4 hours later, supernatant was obtained and the isolated histamine was measured by using histamine analyzer (Astoria Analyzer, Series 300 system).
# [3] = target: T1, Del-N35HRF; assay: Inhibition by HRF-binding peptides of Del-N35HRF-induced IL-8 secretion in BEAS-2B cells; assay type: cell-based; conditions: Del-N35HRF 61 nM, peptide 6.1-610 nM, 24 hours
# Procedure: The interactions between HRF-binding peptides and deletion forms of HRF were investigated in BEAS-2B cells. Del-N35HRF (61 nM) was treated to BEAS-2B cells by the same manner as described in Example 3. At that time, HRF-binding peptide and its mutant in which alanine was replaced (Korean Registered Patent No. 457350B1), and HRF-binding peptides in which amino acid 1 or 7 was deleted were added to Del-N35HRF with different concentrations (6.1-610 nM), followed by standing at room temperature for 10 minutes, which would be added to the cell lines. 24 hours later, supernatant was obtained and the released IL-8 was quantified by PIERCE.
# [4] = system: BEAS-2B cells; assay: IL-8 releasing activity in BEAS-2B cells according to HRF forms; assay type: cell-based; conditions: for IL-8 releasing activity at low level of HRF: HRF 1 μg/Ml, lower than minimum level for IL-8 secretion by wild type HRF; for IL-8 releasing activity: compared with wild type HRF
# Procedure: The activities of different deletion forms of HRF were compared by investigating IL-8 secretions in BEAS-2B cells (ATCC). BEAS-2B cells were cultured in 48-well plate until they were 70% grown up. Then, the cells were washed with 1% penicillin-streptomycin/BEBM (Clonetics) twice, to which each recombinant protein (RrHRF or each deletion form of HRF) separated in Example <1-3> was added by 1 μg/Ml or 10 μg/Ml. 48 or 24 hours later, supernatant was obtained and IL-8 therein was measured by PIERCE (FIG. 5).
# [5] = system: IgE sensitized human basophils; assay: Histamine releasing activity in human basophils according to HRF forms; assay type: cell-based; conditions: compared with wild type HRF
# Procedure: The activities of different deletion forms of HRF were compared by investigating histamine secretions in human basophils. 40 Ml of venous blood was taken from a donor with atopic dermatitis. To the blood sample was added 10 mM of EDTA, an anticoagulant, and 10 Ml of dextran containing 6% saline. The solution stood at room temperature for 90 minutes and then supernatant containing leukocytes was separated, followed by centrifugation at 150×g for 8 minutes. The recovered leukocytes were washed twice with PAG-EDTA (4 mM EDTA, 25 mM PIPES, 110 mM NaCl, 5 mM KCl, 0.003% HSA, 0.1% D-glucose), which were left in cold lactate buffer (13.4 mM lactic acid, 140 mM NaCl, 5 mM KCl, pH 3.9) for 3-5 minutes to eliminate IgE adhered on the surface of cells. The cells were washed with 30 Ml of PAG-EDTA twice and resuspended in PAG-EDTA, followed by IgE-sensitization (1 μg/Ml, Serotec) for 2 hours. Then, the cells were washed with IMDM medium (Gibco BRL) supplemented with 5% FBS twice, to which each recombinant protein (rHRF or each deletion form of HRF) prepared in Example <1-3> was added by 20 μg/Ml. 15 minutes later, human anti-IgE antibody was added thereto. Four hours later, supernatant was obtained. The isolated histamine was measured by histamine analyzer (Astoria Analyzer, Series 300 system) (FIG. 6).
molecule,measurement,setting,value
"Del-N84C108HRF: deletion form of rat HRF, amino acid 84-108 fragment (TKEAYKKYIKDYMKSLKGKLEEQKP; listed as Rattus norvegicus)",affinity to phage expressing HRF-binding heptamer peptide (HBP2),[1],high
same,affinity to phage expressing HRF-binding heptamer peptide (HBP2),[1]; listed as SEQ ID NO:8,excellent
HBP-2: HRF-binding heptamer peptide having the sequence WYVYPSM (Korean Registered Patent No. 457350B1),inhibition of histamine releasing by deletion forms of HRF,[2],inhibits
same,inhibition of histamine releasing by deletion forms of HRF,[2]; listed as HRF-binding peptide,dose-dependently
same,inhibition of IL-8 secretion by deletion forms of HRF,[3],inhibits
same,inhibition of IL-8 secretion by deletion forms of HRF,[3]; listed as HRF-binding peptide,dose-dependently
B1,IL-8 releasing activity at low level of HRF,[4],detected
same,IL-8 releasing activity,[4],greater
same,IL-8 releasing activity,[4]; listed as SEQ ID NO:2,increased
same,histamine releasing activity,[5],more effectively than wild type HRF; also recorded: increased
same,histamine releasing activity,[5]; listed as SEQ ID NO:2,similarly induced histamine releasing
same,affinity to phage expressing HRF-binding heptamer peptide (HBP2),[1],very strong
B2,IL-8 releasing activity at low level of HRF,[4],detected
same,IL-8 releasing activity,[4],greater
same,IL-8 releasing activity,[4]; listed as SEQ ID NO:3,excellent; also recorded: increased
same,histamine releasing activity,[5],more effectively than wild type HRF; also recorded: increased
same,histamine releasing activity,[5]; listed as SEQ ID NO:3,excellent; also recorded: similarly induced histamine releasing
same,affinity to phage expressing HRF-binding heptamer peptide (HBP2),[1],very strong
B3,affinity to phage expressing HRF-binding heptamer peptide (HBP2),[1],very weak
same,affinity to phage expressing HRF-binding heptamer peptide (HBP2),[1]; listed as wild type HRF,weak
B4,histamine releasing activity,[5],as much as that of wild type HRF
same,affinity to phage expressing HRF-binding heptamer peptide (HBP2),[1],very weak and weak
B5,affinity to phage expressing HRF-binding heptamer peptide (HBP2),[1]; listed as SEQ ID NO:5,excellent
